# IntAct's records for PubMed 19001025
# B1: Nucleolar protein 3 (Rattus norvegicus (Rat)), Q62881 (parent)
# chain: MGNMQERPSETIDRERKRLVETLQADSGLLLDALVARGVLTGPEYEALDALPDAERRVRRLLLLVQSKGEAACQELLRCAQQTVSMPDPAWDWQHVGPGYRDRSYDPPCPGHWTPEAPSSGTTCPGLPRASEEEEIGGPEDSEAVQPRTPEEPELEAEATKGDEPDLEQEMEPEPEPEVEPEPEPEPEPEPEPEPEPEPEPEPEREPDFQEGDESEGCENT
# partner: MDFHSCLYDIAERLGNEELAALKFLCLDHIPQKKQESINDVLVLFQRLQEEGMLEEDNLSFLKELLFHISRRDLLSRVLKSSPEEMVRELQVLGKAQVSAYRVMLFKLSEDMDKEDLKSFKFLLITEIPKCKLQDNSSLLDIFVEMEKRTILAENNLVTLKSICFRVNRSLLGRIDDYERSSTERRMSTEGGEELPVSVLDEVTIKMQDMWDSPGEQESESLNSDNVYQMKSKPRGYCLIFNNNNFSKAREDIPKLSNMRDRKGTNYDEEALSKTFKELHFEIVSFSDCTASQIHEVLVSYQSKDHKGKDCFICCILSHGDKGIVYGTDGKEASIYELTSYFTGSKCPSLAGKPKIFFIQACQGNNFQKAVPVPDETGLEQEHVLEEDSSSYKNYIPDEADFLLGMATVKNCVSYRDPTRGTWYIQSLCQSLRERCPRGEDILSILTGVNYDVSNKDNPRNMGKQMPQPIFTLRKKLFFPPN
# Variants of: B1
# Settings: with casp8_rat Casp8, Q9JHX4
row,effect of a mutation on the interaction,Variant
1,disrupting interaction,MGNMQERPSETIDRERKRLVETLQADSGLLLDALVARGVLTGPEYEALDALPDAERRVRRLLLLVQSKGEAACQELLRCAQQTVSMPDPAWDWQHVGPGYRDRSYDPPCPGHWTPEAPSSGTTCPGLPRASEEEEIGGPEDSEAVQPRDPEEPELEAEATKGDEPDLEQEMEPEPEPEVEPEPEPEPEPEPEPEPEPEPEPEPEREPDFQEGDESEGCENT [T149D]
